Source: the DeepSol protein solubility set

Assay: soluble on expression in E. coli; label from the status in PepcDB or PDB records

Row | Sequence | soluble on expression in E. coli
1 | MTESDDHKLVLAISSRALFDLRDSHAVYMAEGVEAYRKYQIEHEDEILERGDAFTLVEKLLNLNASLSKARVEVVLVSRNSADTGLRVFNSIQHYGLDIARAAFAGGRSPYPYLAAFGCHLFLSTHAEDVRSALDAGFAAATILSGGARRAASAELRIAFDGDAVLFSDESERVYQSGGLAAFQASERESAREPLRGGPFKPFLAALNQLQREFPDASCPIRTALVTARSAPAHERVIRTLREWDIRLDESLFLGGLQKSAFLEAFAADVFFDDQPGHCEKAREVVATGHVPHGISNEIIPFDGGGAAALEHHHHHH | not soluble
2 | MTESVARLRGEQLTLGYGKYTVAENLTVEIPDGHFTAIIGPNGCGKSTLLRTLSRLMTPAHGHVWLDGEHIQHYASKEVARRIGLLAQNATTLGDITVQELVARGRYPHQPLFTRWRKEDEEAVTKAMQATGITHLADQSVDTLSGGQRQRAWIAMVLAQETAIMLLDEPTTWLDISHQIDLLELLSELNREKGYTLAAVLHDLNQACRYASHLIALREGKIVAQGAPKEIVTAELIERIYGLRCMIIDDPVAGTPLVVPLGRTAPSTANS | not soluble
3 | MTETYVLAESPEFYQDNVTDYTGQISSSDITNIQAAIDDVKASEQKVIFVVFLSSFDGVDPETWTQQALQANGGGNVLIYALAPEERQYGIQGGTQWTDAELDAANNAAFQALSQEDWAGSALALAESVGSSSSSSSGSSSLEHHHHHH | soluble
4 | MTEVIAYLIEHFQDFDTCPPPEDLGMLLEEAGFDTMEIGNTLMMMEVLLNSSEFSAEPADSGALRVYSKEETDNLPQEVMGLMQYLIEEKAVSCEQREIIIHALMHIPGDEITVDTAKVLTLLLLWANKSELPVLVGDELMSALLLDNKPTMN | not soluble
5 | MTEYLSVSALTKYIKYKFDQDPHLQSVLIKGELSNFKKHSSGHLYFNVKDKESVISAMMFKGNASKLGFEPKEGDEVLIEARVSVYERRGNYQIYVNKMQLDGIGNLYQKLELLKKKLKKEGYFNQSNKKLIPKYPKKIAVLTASTGAAIRDIHSTINNRYPLVEQIQISTLVQGTQARQDIIEKIQYADSLDVDTIIVGRGGGSIEDLWNFNEEDVVKTIFNCQTPIISAVGHETDFTLSDFVADVRAATPTQAAVIATPDQYELLQQIKQYEYTLSRYIKQYIEHQKKQLNHISSYYKFKQPSLLYDQQIQKRDELERQLNHLLNTKVEKSKHHLKLLQQSFNFKNLNQQITQEKQSIYQLHSRLSKIMSNNITNLKTVLKNKLESLNNLSPTNTMLRGYAIVNKDNEVVTSTHKLNENDQISLTMKDGSVDATVKKVRCNDE | not soluble
6 | MTFYYQRLAQQIAHKIYQQQLLPQQKLSSLRDFATQHQVSISTAKSCYEWLEAQGLIYVKPKSGYFVKPKSNVSRLPVSPEFESMPRQVSNLMLQNQIQEASIQNHLIPFGAIQLSPELVPIDGLRRSIQRALKYCKPEDFLYCEKQGHLRLRQALSEHWREDGIYVAPNDIFITNGCMPALSLLIQQLSREGDSILIPTPTFNGQLQLLAGLNRHIIEIPADHTGIDLLRLEQAMQMHQPKLCLLTANYQNPLGYCLADEDKQKIAQLAARYQCIILEDDIYAECSHHGQRPRPIKYWDEAGYVIWVSSVSKSLSSAYRVGWFCIGSQLEPMRPRFLSHNMTVNTPLQLALADFIFSRGYRRHLNQLHPRLMQQVEAYRDVILNAFAPLTIGLSQPQGGYALWLELPDNINSVTLYEVAQQQGISIVPGTVFGEDQRYGHFIRLSVGHALQNEHHAAIIFLADWVKQHC | not soluble
7 | MTGKLPKACVIGAGCSGFTTIKRLKDYGIPYDCFEMSDEVGGNWYYKNPNGLSACYESLHIDTSKWRLAFEDFPVPKDWPDFPHHAQLFQYFKDYVDHFGLRPTITFNTKVESAKRTADGLWAVTLSGGETQFYDVLFVCNGHHWDPRVPEYPGEFDGPAFHAHAYCDPFDPVDMRGKNVVVVGMGNSAMDIASELSQRPIAKNLWVSARRGVWVFPKYLNGKPADKTALPAWMPRKLGVALSRSVLKKTIGRMEDYGLPKPDHEPLEAHPSVSGEFLTRAGCGDIKFKPAIKALEGKRVRFTDDSVEDVDAIVFATGYKISFPFFDDPALLPDADHRLPLFKRMMKPEVPNLFYMGLAQPLPTLVNFAEQQAKLAAAYLAGQYALPPPAEMARITAKDEHRHTGHFYDSARHTIQVDFNVYCADLKKEIAKGEARARNAGGKLPVAARAEGQALAAELEHHHHHH | soluble
8 | MTIAQQERPVAASPYRFEAEMTSGLERVAAHHHDLTLTSVFQPIFSLSHMRAVGYEALLRAHDALDRPVSPLDVFGEAARHGEAAQVDRLAQALHLENFARFGAEREWLFLNVHPGVLTDPFQAAALFANLKRLEIPPRRIVLEVLEQRADDIERLADAVREFREQGFLIALDDFGAGHSNIERIWQLNPDIVKLDRIMLSHAQHRAGLTAILHGLVTLLHEAGKLVLIEGIETEHEAQIALACDADFVQGHFFGRP | not soluble
9 | MTIDTELTNGSSESVPFVFIGGGNMAAAIIKGCQNKGFTPKSNIVIGVQTEKSAEKWRQLGYKNVFTNTLEMLERYSTAIYVICVKPQVFEEVVSSWPVNSRPEFIISVMAGVPLKVLNAKLPFVSGNTTIVRLMPNVASSIGAGASTMCYEKNEKIMNQDSHIELAREFAECVGTVELIPERCFNPAMAIGGSSPAWTFMYIESLADGAVAQGLGRAEAKRLAAQAVLGAAQMVLNSNSGFDIETQHFGSLKDMVCSPGGTTIEGVRALEKNGFRYAVMEAVVAASTKADEMAKSLAK | soluble
10 | MTIENDYAKLKELMEFPAKMTFKVAGINREGLAQDLIQVVQKYIKGDYIPKEKRSSKGTYNSVSIDIIAENFDQVETLYKELAKVEGVKMVI | not soluble
11 | MTIFNKIDYNYYKLINYPIMMVHDEWLGDLTGVNQVSFRRLRETSSTRNQLNKILRQEIHDKISGVELSDINKEGFLYQSIGKIRLLALSSALFDIQCPDYIFSRLYRETLIREIGYQNVKQLSFYWQGGQCKPEYGEERFCAELIKYGAGNLEWLFADNPLWTIVKYLLPKSGEIKPTHINDLFLNRLNKILLPYETL | not soluble
12 | MTIHHHGSAERKSIDDYSDIPRGEACKQLVEQLNRNLYSLNSNMQTTFKQMVHVETRIGHEISLLSSCLQENMSKCTMPYAPHEEQLVQLDSAKRNLKQLTRLLDARQIFDAEDSQSEKLKDRAIDDSLLPTLVAIGDNLKIIKELGAKPKFDAETYHKTKDRYLAWKGTEFAVKFDTPGGLDDIFDAFTTLNSVNDFYRLYQHHFDQSLNNLNKNSGIEDEKSLKEMGTVFVTKAAEHFRTHIGSLCKYCDENEAFTRLLDAWKNYIKNGTLEKLFEQSMENYNNYDLLSDLKSVVTKAYEEFETNTAGGPEDDEESIENIERIIVDGLMESAKKPLSEKLRSMVEPPPLNFRSVAEVMSSLENFAYLLREISHQLLEIYLEDEGREFMISILKPIFTDYTMRLCRMEDNSTPKVKLEEYLERIALAGQLSTIVEEYKDQTEIKNGLELKNAKKWMNERVKDAIRASHRFVTDKMPNHGSETYKESADMAKSALPTPQDFVVTATQNLLHLLRFWEEALANENTKVALIAHVMDINKESLETPDDDAIFAAILDRIASHVVKKLLQSINDVWLTDGKTATLSKGLVKEFLCDAEYLRDALVDLRAGTHDNLDSTINKLREQLKTMS | not soluble
13 | MTIHLSSLGQVYLVCGKTDMRQGIDSLAYLVKTHFELDPFSGQVFLFCGGRKDRFKALYWDGQGFWLLYKRFENGKLTWPSTEKDVKALTPEQVDWLMKGFSITPKINLSESRDFY | not soluble
14 | MTILAIDTSNYTLGIALLREDTVIAEYITYLKKNHSVRAMPAVHSLLNDCDMAPQDLSKIVVAKGPGSYTGVRIGVTLAKTLAWSLDIPISAVSSLETLAANGRHFDGLISPIFDARRGQVYTGLYQYKNGLLEQVVPDQNVMLADWLEMLKEKDRPVLFLGHDTSLHKQMIEDVLGTKGFIGTAAQHNPRPSELAFLGKEKEAADVHGLVPDYLRLAEAEAKWIESQKLEHHHHHH | not soluble
15 | MTINASNSATKKDKPAKYTMIKQYICEHIESGEWPQNAKVPSENELTQQFDVSRMTARRALQELTEQGILVRSQGAGTFVATFKSQSSLLEIRNISDEISDRGHQHKAKQLLLNSTAVTDEIAILLNLKNNEDVFYSEILHYENDDAIQLEQRFVNVSLVPDYLLQNFTQITPHEYLSSVAPLTEATHEIEAILASDEICQQLDIQSTTPCLQVKRRTWSKQGVVSVAILTSPGDKYRLGSHLKF | not soluble
16 | MTINMALHYPNYFAALVPQATAYSYYQYERNNDGTYKMIEDKNSISGKSSIRTNKIWFDSQKVKTLKNIPIWFIHSAADKVVNPKTYSLPIYKSLLDSGAKNKWFSYYDNVQGKDLKDTTYNGHWSWVYFFNNQVSSVQDVKTIKKSSKLSGFKPSNKSKGGAATAKEGKKSYNNVFDWLNDQKK | not soluble
17 | MTIQHQFAENLSRLKKEHGLKNHQIAELLNVQTRTVAYYMSGETKPDIEKLIRLATYFHLSIDELVGYVQEDKVWNDLSLKQWLLSLNLRSEEEIAKIKILVDTVETLYPN | not soluble
18 | MTIVAENLTKHLSNLSKRGPHRVLVGDLDYVGLPGKIYTPAEGNGLPAVVFAHDWMQDISRYHATLRHLASWGIVVAAPNTEKGISPNHRGFAADIETSLQVLTGVKLGAGNISVAPGRLGIVGHGMGAGAAVLAAADRPQIAAVAAIYPSQVSPSADVAARNVEAAGLVLGTEENAMFDFGNAAKLALEWKGPVAYREIDRASHQTLTENTLFKRVTGLGGTNTAARERIRGVVTGFLLHQLADQKKYSGFSEADATGKKVHSYWGEELQERASLTGDSKLTLFKS | not soluble
19 | MTIYFKNGFYDDTLGGIPEGAVAVRAEEYAALLAGQAQGGQIAADSDGRPVLTPPRPSDYHEWDGKKWKISKAAAAARFAKQKTALAFRLAEKADELKNSLLAGYPQVEIDSFYRQEKEALARQADNNAPTPMLAQIAAARGVELDVLIEKVIEKSARLAVAAGAIIGKRQQLEDKLNTIETAPGLDALEKEIEEWTLNIG | not soluble
20 | MTKIAFTGGGTVGHVSVNLSLIPTALSQGYEALYIGSKNGIEREMIESQLPEIKYYPISSGKLRRYISLENAKDVFKVLKGILDARKVLKKEKPDLLFSKGGFVSVPVVIAAKSLNIPTIIHESDLTPGLANKIALKFAKKIYTTFEETLNYLPKEKADFIGATIREDLKNGNAHNGYQLTGFNENKKVLLVMGGSLGSKKLNSIIRENLDALLQQYQVIHLTGKGLKDAQVKKSGYIQYEFVKEDLTDLLAITDTVISRAGSNAIYEFLTLRIPMLLVPLGLDQSRGDQIDNANHFADKGYAKAIDEEQLTAQILLQELNEMEQERTRIINNMKSYEQSYTKEALFDKMIKDALN | not soluble
21 | MTKIMIIGANGGIAKKLTQRLLAETDDELVLFLRRAERLAQYREQPRVTLIDGNVLDTDELATAMAPVDIVYSNVGGTDLAAQTKSILAAMARTQRQRLIFISALGAHHEVPGKFGAWNEQAIADFLPGFREAARLLSASELVYTEIRPAWLTDVAEIDYELTTGAEPFKGTEVSRASVADLVFKLMAHPENYQRVSLGVDEPGTAGDRPSWLLEHHHHHH | not soluble
22 | MTKKKLLKALAVAAIATSLVACSDSSSNDKTLTTAVSSGSSVATTTVAAPADNTNVTANASYIIGYGMGSSIATDKNIKTFNLNNDKVMAGFEDAINAKKPAIPLEDIANNMNTLRDKMQQQMNQKAVTSFLSVQDGIYNSDLTPKSDIKNPDVVVYEFFDYQCMYCSKLAPEIEKIMKDNSDVQVVFAEFPIFGQKLPASEYAAEVSTAIYKLYGADAYVKYHNGIFATGEDEGSLKNATVDNVAKQAGADMTKVNKAIQDDKIADHLKDMLKMGFGQLGIQGTPFLVIAPAKNATVANTTIIGGYTTADGIQAAINKAKSTATTTSTSNNGQTDTKQAQNDIATVTAEAQATSGSTEQLAQPR | not soluble
